{"source": "patent US20230067757A1", "about": "(NOVAROCK BIOTHERAPEUTICS, published 2023)", "binders": {"B1": {"name": "Hu-3 (antibody, V domains shown)", "VH": "QLQLQESGPGLVKPSETLSLTCTVSDGPISSSRYYWGWIRQPPGKGLEWIGSFHYSGSTYYNPSLKSRVTISADTSKNQFSLKLSSVTAADTAVYYCARLVLRYFDWLGFFDLWGRGTLVTVSS", "VL": "EIVMTQSPAILSLSPGERAALSCRASQSVRSSYLSWYQQKPGQAPRLLIYGTSTRATGIPARFSGSGSGTDFTLTISSLQPEDFAVYYCQQDYNLPITFGQGTRLEFK"}, "B2": {"name": "Hu-18 (antibody, V domains shown)", "VH": "QVQLVQSGAEVKKPGASVKVSCRVSGYTLSALSMYWVRQAPGKGLEWMGGFDPEDGKTIYAQKFQGRVTMTEDTSTGTAYMELSSLRSEDTAIYYCATTLRYFDWNYWGQGTPVTVSS", "VL": "DIVMTQTPLSSPVTLGQPASISCRSSQSLVHSDGNTYLSWLQQRPGQPPRLLIYKVSKRFSGVPDRFSGSGAGTDFTLKISRVEAEDVGVYYCTQGTQFPRTFGQGTKVEIK", "notes": "Human V regions (Trianni mice)"}}, "key": {"[1]": {"target": "T1, human claudin 18 isoform 2 (claudin 18.2) (human)", "T1 construct": "Recombinant on transfected CHO cells (CHO-CLDN18.2) or endogenous on tumor cell lines PATU8988S, NUGC-4, KATOIII; the cell line is named under assay; also called CLDN18.2", "assay": "imaging, PATU8988S cells (endogenous CLDN18.2); +++ = EC50 between 2 nM and 20 nM", "description": "(§1) Tumor cells were plated in complete media containing RPMI1640 with +10% FBS, then incubated overnight at 37° C., Claudin18.2 antibodies were serial diluted and added to the assay plates, incubated at 4° C. for 2 hours, followed by fixing cells and further staining the cells for 30 minutes with Alexa Fluor® 488 Goat Anti-Human IgG (H+L) secondary antibody (invitrogen Cat #A-11013) for detection. The binding was assessed by imaging the cells and quantifying the fluorescence intensity using a Biotek Cytation."}, "[2]": {"target": "T1, human claudin 18 isoform 2 (claudin …)", "assay": "cell-based or functional assay"}, "[3]": {"target": "T1, human claudin 18 isoform 2 (claudin …)", "assay": "immunofluorescence imaging, CHO-CLDN18.2 cells (FIG. 3C); Table 6 prints 1.3", "description": "as §1, with “The specific cellular binding affinity of anti-Claudin18.2 antibodies was tested on CHO-CLDN18.2 (transfected CHO cell expressing recombinant human CLDN18.2) and CHO-CLDN18.1 (transfected CHO cell expressing recombinant human CLDN18.1) cells. The” for “Tumor”, “F12” for “RPMI1640”, “10%” for “+10%”, “anti-Claudin18.2” for “Claudin18.2”, “antibody, invitrogen” for “antibody (invitrogen”, “#A-11013” for “#A-11013)”"}, "[4]": {"target": "T1, human claudin 18 isoform 2 (claudin …)", "assay": "cell-based or functional assay", "remark": "listed apart in the source"}, "[5]": {"target": "T2, human claudin 18 isoform 1 (claudin 18.1) (human, UniProt P56856 1-261)", "T2 construct": "Recombinant on transfected CHO cells (CHO-CLDN18.1); also called CLDN18.1", "T2 sequence (P56856 whole entry, canonical isoform)": "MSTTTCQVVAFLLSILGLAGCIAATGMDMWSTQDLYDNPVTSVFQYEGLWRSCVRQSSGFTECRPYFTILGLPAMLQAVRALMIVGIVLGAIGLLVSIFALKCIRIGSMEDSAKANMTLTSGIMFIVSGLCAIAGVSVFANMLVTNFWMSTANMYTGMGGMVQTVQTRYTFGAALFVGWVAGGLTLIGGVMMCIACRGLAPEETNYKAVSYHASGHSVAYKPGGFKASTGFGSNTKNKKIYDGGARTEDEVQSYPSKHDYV", "assay": "immunofluorescence imaging on CHO cells expressing human CLDN18.1, antibody at 10 µg/ml", "procedure,_shortened": "(§2)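 Binding on CHO cells transfected with human CLDN18.2, with human CLDN18.1 transfectants as counter-screen, plated overnight at 37° C. Serially diluted antibodies incubated 2 h at 4° C; fixed cells stained 30 min with Alexa Fluor 488 anti-human IgG and fluorescence intensity quantified by imaging.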"}, "[6]": {"target": "T1, human claudin 18 isoform 2 (claudin …)", "assay": "immunofluorescence imaging, CHO-CLDN18.2 cells, serial dilution", "procedure,_shortened": "as §2"}, "[7]": {"target": "T1, human claudin 18 isoform 2 (claudin …)", "assay": "immunofluorescence imaging, CHO-CLDN18.2 cells; low end tied to Hu-18 by Table 6 (0.8)", "description": "as §1, with “The specific cellular binding affinity of anti-Claudin18.2 antibodies was tested on CHO-CLDN18.2 (transfected CHO cell expressing recombinant human CLDN18.2) and CHO-CLDN18.1 (transfected CHO cell expressing recombinant human CLDN18.1) cells. The” for “Tumor”, “F12” for “RPMI1640”, “10%” for “+10%”, “anti-Claudin18.2” for “Claudin18.2”, “antibody, invitrogen” for “antibody (invitrogen”, “#A-11013” for “#A-11013)”"}, "[8]": {"target": "T2, human claudin 18 isoform 1 (claudin …)", "assay": "imaging, CHO-CLDN18.1 cells, dose titration", "description": "as §1, with “The specific cellular binding affinity of anti-Claudin18.2 antibodies was tested on CHO-CLDN18.2 (transfected CHO cell expressing recombinant human CLDN18.2) and CHO-CLDN18.1 (transfected CHO cell expressing recombinant human CLDN18.1) cells. The” for “Tumor”, “F12” for “RPMI1640”, “10%” for “+10%”, “anti-Claudin18.2” for “Claudin18.2”, “antibody, invitrogen” for “antibody (invitrogen”, “#A-11013” for “#A-11013)”"}}, "data": [{"binder": "B1", "values": [{"measurement": "EC50", "setting": "[1]", "value": "2 to 20", "unit": "nM"}, {"measurement": "ADCC EC50, CHO-18.2 target cells (mouse FcγRIV reporter bioluminescence)", "setting": "[2]", "value": 3.11, "unit": "nM"}, {"measurement": "EC50", "setting": "[3]", "value": 1.34, "unit": "nM"}, {"measurement": "endocytosis derived cell toxicity EC50, CHO-18.2 cells (anti-IgG Fc-MMAF co-internalization)", "setting": "[4]", "value": 1.23, "unit": "nM"}, {"measurement": "binding result", "setting": "[5]", "value": "no binding (tested: 10 µg/ml)"}, {"measurement": "EC50", "setting": "[6]", "value": 1.3, "unit": "nM"}]}, {"binder": "B2", "values": [{"measurement": "EC50", "setting": "[7]", "value": 0.77, "unit": "nM"}, {"measurement": "binding result", "setting": "[8]", "value": "no binding (tested: 133.4 nM)"}, {"measurement": "EC50", "setting": "[6]", "value": 0.8, "unit": "nM"}]}]}
